One experiment deals with T1, O8-bP.
T1 chain: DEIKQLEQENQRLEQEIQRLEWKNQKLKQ
In words: two-hybrid library CCNG1.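 Further: natural log of median RNA to DNA barcode read ratio; higher means stronger binding.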

The target in the next experiment is T2, O6-bP.
T2 chain: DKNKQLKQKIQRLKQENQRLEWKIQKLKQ
In words: two-hybrid library CCNG1.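 Further: natural log of median RNA to DNA barcode read ratio; higher means stronger binding.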

The target of a further experiment is T3, O7-bP.
T3 chain: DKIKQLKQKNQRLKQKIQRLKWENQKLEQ
In words: two-hybrid library CCNG1.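 Further: natural log of median RNA to DNA barcode read ratio; higher means stronger binding.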

For a further experiment, the target named is T4, O9-bP.
T4 chain: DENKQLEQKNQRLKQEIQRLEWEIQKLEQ
In words: two-hybrid library CCNG1.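 Further: natural log of median RNA to DNA barcode read ratio; higher means stronger binding.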

The next experiment concerns the target T5, 4H3590-AA.
T5 chain: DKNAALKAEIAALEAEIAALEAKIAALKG
The experiment can be described thus: two-hybrid library CCmax. Conditions: mean of both orientations.

The target of a further experiment is T6, 4H3395-AA.
T6 chain: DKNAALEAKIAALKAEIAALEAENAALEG
The experiment can be described thus: two-hybrid library CCmax. Conditions: mean of both orientations.

Another experiment has as its target T7, 4H3697-AA.
T7 chain: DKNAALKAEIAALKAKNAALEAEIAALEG
In words: two-hybrid library CCmax. Conditions: mean of both orientations.

The target in a further experiment is T8, 4H3165-AA.
T8 chain: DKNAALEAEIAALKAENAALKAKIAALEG
The experiment can be described thus: two-hybrid library CCmax. Conditions: mean of both orientations.

The next experiment addresses T9, 4H909-AA.
T9 chain: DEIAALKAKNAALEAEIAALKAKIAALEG
In words: two-hybrid library CCmax. Conditions: mean of both orientations.

The target of the next experiment is T10, 4H2438-AA.
T10 chain: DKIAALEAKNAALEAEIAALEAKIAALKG
The experiment can be described thus: two-hybrid library CCmax. Conditions: mean of both orientations.

The target of the next experiment is T11, 4H710-AA.
T11 chain: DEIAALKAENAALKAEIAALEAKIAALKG
The experiment can be described thus: two-hybrid library CCmax. Conditions: mean of both orientations.

Another experiment deals with T12, 4H570-AA.
T12 chain: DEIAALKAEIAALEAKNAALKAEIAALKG
The experiment can be described thus: two-hybrid library CCmax. Conditions: mean of both orientations.

The target in a further experiment is T13, 4H2725-AA.
T13 chain: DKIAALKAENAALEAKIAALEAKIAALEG
The experiment can be described thus: two-hybrid library CCmax. Conditions: mean of both orientations.

The target in the next experiment is T14, 4H2162-AA.
T14 chain: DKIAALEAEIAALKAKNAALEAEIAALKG
The experiment can be described thus: two-hybrid library CCmax.

For another experiment, the target named is T15, 4H2649-AA.
T15 chain: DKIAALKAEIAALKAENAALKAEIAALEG
In words: two-hybrid library CCmax. Conditions: mean of both orientations.

The target in the next experiment is T16, 4H850-AA.
T16 chain: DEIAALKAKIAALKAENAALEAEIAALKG
The experiment can be described thus: two-hybrid library CCmax. Conditions: mean of both orientations.

For the next experiment, the target named is T17, 4H3865-AA.
T17 chain: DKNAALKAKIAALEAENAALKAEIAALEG
In words: two-hybrid library CCmax. Conditions: mean of both orientations.

A further experiment addresses T18, 4H485-AA.
T18 chain: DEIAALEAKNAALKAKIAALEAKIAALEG
The experiment can be described thus: two-hybrid library CCmax. Conditions: mean of both orientations.

A further experiment has as its target T19, 4H2330-AA.
T19 chain: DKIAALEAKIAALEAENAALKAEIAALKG
In words: two-hybrid library CCmax. Conditions: mean of both orientations.

The target of a further experiment is T20, 4H2253-AA.
T20 chain: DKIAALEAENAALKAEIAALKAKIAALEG
In words: two-hybrid library CCmax. Conditions: mean of both orientations.

In a further experiment the target is T21, 4H930-AA.
T21 chain: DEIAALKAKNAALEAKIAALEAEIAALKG
In words: two-hybrid library CCmax. Conditions: mean of both orientations.

Another experiment concerns the target T22, 4H2473-AA.
T22 chain: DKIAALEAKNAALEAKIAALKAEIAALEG
The experiment can be described thus: two-hybrid library CCmax. Conditions: mean of both orientations.

In the next experiment the target is T23, 4H2865-AA.
T23 chain: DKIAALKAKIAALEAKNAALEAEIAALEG
The experiment can be described thus: two-hybrid library CCmax. Conditions: mean of both orientations.

The target of the next experiment is T24, 4H3130-AA.
T24 chain: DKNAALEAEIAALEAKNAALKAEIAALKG
In words: two-hybrid library CCmax. Conditions: mean of both orientations.

Another experiment deals with T25, 4H3753-AA.
T25 chain: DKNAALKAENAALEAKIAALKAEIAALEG
The experiment can be described thus: two-hybrid library CCmax. Conditions: mean of both orientations.

For the next experiment, the target named is T26, 4H797-AA.
T26 chain: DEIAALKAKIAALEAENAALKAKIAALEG
The experiment can be described thus: two-hybrid library CCmax. Conditions: mean of both orientations.

In another experiment the target is T27, 4H3120-AA.
T27 chain: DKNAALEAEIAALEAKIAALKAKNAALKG
The experiment can be described thus: two-hybrid library CCmax. Conditions: mean of both orientations.

Another experiment has as its target T28, 4H3410-AA.
T28 chain: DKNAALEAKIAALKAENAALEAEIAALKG
In words: two-hybrid library CCmax. Conditions: mean of both orientations.

In a further experiment the target is T29, 4H94-AA.
T29 chain: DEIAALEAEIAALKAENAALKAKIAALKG
In words: two-hybrid library CCmax. Conditions: mean of both orientations.

A further experiment has as its target T30, 4H629-AA.
T30 chain: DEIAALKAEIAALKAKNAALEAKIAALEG
In words: two-hybrid library CCmax. Conditions: mean of both orientations.

Another experiment deals with T31, 4H891-AA.
T31 chain: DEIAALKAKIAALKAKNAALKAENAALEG
The experiment can be described thus: two-hybrid library CCmax. Conditions: mean of both orientations.

Another experiment addresses T32, 4H745-AA.
T32 chain: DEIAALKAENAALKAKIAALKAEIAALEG
The experiment can be described thus: two-hybrid library CCmax. Conditions: mean of both orientations.

The target of a further experiment is T33, 4H3009-AA.
T33 chain: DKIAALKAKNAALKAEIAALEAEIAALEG
The experiment can be described thus: two-hybrid library CCmax. Conditions: mean of both orientations.

For a further experiment, the target named is T34, 4H3381-AA.
T34 chain: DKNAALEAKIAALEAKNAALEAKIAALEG
The experiment can be described thus: two-hybrid library CCmax. Conditions: mean of both orientations.

The next experiment has as its target T35, 4H310-AA.
T35 chain: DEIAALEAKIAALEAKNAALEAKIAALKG
The experiment can be described thus: two-hybrid library CCmax. Conditions: mean of both orientations.

Another experiment concerns the target T36, 4H536-AA.
T36 chain: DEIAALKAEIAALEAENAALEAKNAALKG
The experiment can be described thus: two-hybrid library CCmax. Conditions: mean of both orientations.

For a further experiment, the target named is T37, 4H2274-AA.
T37 chain: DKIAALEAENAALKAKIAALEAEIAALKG
In words: two-hybrid library CCmax. Conditions: mean of both orientations.

Another experiment has as its target T38, 4H3016-AA.
T38 chain: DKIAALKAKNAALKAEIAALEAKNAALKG
In words: two-hybrid library CCmax. Conditions: mean of both orientations.

A further experiment concerns the target T39, 4H2698-AA.
T39 chain: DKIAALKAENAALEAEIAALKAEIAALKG
The experiment can be described thus: two-hybrid library CCmax. Conditions: mean of both orientations.

Another experiment addresses T40, 4H458-AA.
T40 chain: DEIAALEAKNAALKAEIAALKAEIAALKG
In words: two-hybrid library CCmax. Conditions: mean of both orientations.

The next experiment deals with T41, 4H2389-AA.
T41 chain: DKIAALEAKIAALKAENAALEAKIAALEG
The experiment can be described thus: two-hybrid library CCmax. Conditions: mean of both orientations.

The target in a further experiment is T42, O5-bP.
T42 chain: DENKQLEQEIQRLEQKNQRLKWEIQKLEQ
The experiment can be described thus: two-hybrid library CCNG1.

Another experiment concerns the target T43, 4H883-bA.
T43 chain: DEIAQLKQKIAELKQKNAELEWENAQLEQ
The experiment can be described thus: two-hybrid library CCNG1.

Another experiment addresses T44, 4H607-bA.
T44 chain: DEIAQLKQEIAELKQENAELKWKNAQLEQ
The experiment can be described thus: two-hybrid library CCNG1.

The target of another experiment is T45, 4H3782-bA.
T45 chain: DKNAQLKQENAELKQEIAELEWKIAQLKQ
The experiment can be described thus: two-hybrid library CCNG1.

For the next experiment, the target named is T46, 4H72-bA.
T46 chain: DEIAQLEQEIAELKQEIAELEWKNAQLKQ
The experiment can be described thus: two-hybrid library CCNG1.

Another experiment deals with T47, 4H967-bA.
T47 chain: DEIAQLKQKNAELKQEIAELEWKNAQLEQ
In words: two-hybrid library CCNG1.

Another experiment addresses T48, 4H3843-bA.
T48 chain: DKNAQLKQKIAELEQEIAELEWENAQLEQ
In words: two-hybrid library CCNG1.

The target of a further experiment is T49, 4H568-bA.
T49 chain: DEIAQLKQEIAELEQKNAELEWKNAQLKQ
In words: two-hybrid library CCNG1.

A further experiment has as its target T50, 4H797-bA.
T50 chain: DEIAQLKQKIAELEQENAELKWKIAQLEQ
In words: two-hybrid library CCNG1.

For the next experiment, the target named is T51, 4H4001-bA.
T51 chain: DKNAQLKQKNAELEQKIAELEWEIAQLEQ
In words: two-hybrid library CCNG1.

In a further experiment the target is T52, 4H370-bA.
T52 chain: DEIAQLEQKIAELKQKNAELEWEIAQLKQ
In words: two-hybrid library CCNG1.

The target in another experiment is T53, 4H687-bA.
T53 chain: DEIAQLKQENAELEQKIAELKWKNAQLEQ
In words: two-hybrid library CCNG1.

Another experiment has as its target T54, 4H462-bA.
T54 chain: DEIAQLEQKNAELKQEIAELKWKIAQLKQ
In words: two-hybrid library CCNG1.

The target in the next experiment is T55, 4H953-bA.
T55 chain: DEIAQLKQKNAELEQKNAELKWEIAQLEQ
In words: two-hybrid library CCNG1.

A further experiment deals with T56, 4H918-bA.
T56 chain: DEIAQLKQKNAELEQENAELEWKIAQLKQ
The experiment can be described thus: two-hybrid library CCNG1.

B1: O6-bP (peptide)
chain: DKNKQLKQKIQRLKQENQRLEWKIQKLKQ
Take B1: the interaction score was -2.38 in the experiment with O8-bP, -0.702 with O6-bP, -0.618 with O7-bP and -0.21 with O9-bP.

B2: 4H2162-AA (peptide)
chain: DKIAALEAEIAALKAKNAALEAEIAALKG
B2: the interaction score with 4H3590-AA is -0.841; with 4H3395-AA, -0.899; with 4H3697-AA it was -0.752; with 4H3165-AA it was -0.865; with 4H909-AA it was -1.18; with 4H2438-AA, -0.363. Moreover, the interaction score in the experiment with 4H710-AA was -1.09; in the experiment with 4H570-AA, 0.778; with 4H2725-AA, -1.72; in the experiment with 4H2162-AA it was 1.73; in the experiment with 4H2649-AA, -0.344; with 4H850-AA it was 0.439. The interaction score with 4H3865-AA is -1.59; with 4H485-AA it was -1.06; with 4H2330-AA it was -1.04; with 4H2253-AA, -1.34; with 4H930-AA it was -1.36; with 4H2473-AA it was -1.53. Further, the interaction score with 4H2865-AA was -0.262; with 4H3130-AA it was -0.375; in the experiment with 4H3753-AA, -1.93; in the experiment with 4H797-AA, -1.49; with 4H3120-AA, -1.44; in the experiment with 4H3410-AA it was -0.231. Also, the interaction score with 4H94-AA was -0.0378; with 4H629-AA, -1.01; with 4H891-AA, -1.78; with 4H745-AA it was -0.859; with 4H3009-AA it was -1.18; in the experiment with 4H3381-AA it was -1.58. Further, the interaction score in the experiment with 4H310-AA is -0.523; with 4H536-AA it was -1.2; with 4H2274-AA, -0.925; with 4H3016-AA, -2.12; with 4H2698-AA it was -1.79; in the experiment with 4H458-AA it was -0.816. In the experiment with 4H2389-AA, this molecule returned an interaction score of -0.128.

B3: O5-bP (peptide)
chain: DENKQLEQEIQRLEQKNQRLKWEIQKLEQ
Turning to B3, the interaction score is -0.837 with O8-bP; 2.35 with O6-bP; -1.28 in the experiment with O7-bP; -1.57 with O5-bP; -1.33 with O9-bP.

B4: 4H370-bA (peptide)
chain: DEIAQLEQKIAELKQKNAELEWEIAQLKQ
Turning to B4, the interaction score was -0.545 with 4H883-bA; -0.647 with 4H607-bA; 0.864 with 4H3782-bA; 0.634 with 4H72-bA; -0.217 with 4H967-bA; -0.261 in the experiment with 4H3843-bA. Besides, the interaction score is 1.81 with 4H568-bA; -0.315 with 4H797-bA; -0.375 with 4H4001-bA; 1.12 in the experiment with 4H370-bA; -0.346 with 4H687-bA; 1.39 with 4H462-bA. The interaction score is -1.39 in the experiment with 4H953-bA and -0.552 in the experiment with 4H918-bA.
